Data set [1] concerns knee joint region (synovium). Description: In vivo antibody binding pattern in the knee joint (immunofluorescence). The arrangement: species or system mouse. The text has this: Immunofluorescent staining. The isolated femur and tibia bones were fixed in 4% paraformaldehyde for 2 days prior to decalcification with 10% EDTA (pH 7.5) for 3 weeks, and then dehydrated in 30% sucrose/PBS for 3 days. Samples were embedded in the Tissue-Tek CRYO OCT compound (Thermo Fisher Scientific, Pittsburgh, PA, USA), and 12-μm-thick sections were collected on glass slides. Sections were blocked and permeabilized with 2% goat serum, 2% fish skin gelatin, 0.025% Triton X-100 and 1% bovine serum albumin in PBS. The sections were incubated overnight at 4° C. with affinity-purified antibodies against Cx43 (CT) (1:100) (Cherian P P, et al. The Journal of biological chemistry. 2003; 278(44):43146-56), for 1 hour with the appropriate secondary antibody. Slides were mounted using Vectashield mounting medium (H-1000, Vector Lab). Confocal fluorescence imaging was performed using a confocal laser scanning microscope (LSM770, Carl Zeiss, Oberkochen, Germany).
M1 antibody binds to synovium and inhibits hemichannel opening in OA. Due to the dense nature of cartilage and large size of antibodies, a widely held perception is that antibodies are unable to penetrate the cartilage matrix. To determine the antibody binding pattern in the knee joint region, M1 antibody (25 mg/kg) with human IgG epitope or saline was intraperitoneally (i.p.) injected at 30 mins after DMM surgery. As shown in the diagram (FIG. 8A), mice were euthanized and perfused before isolation of hindlimbs at one or two weeks after injection. Frozen tissue sections were prepared and immuno-labeled with Alexa Fluor 594-conjugated anti-human IgG secondary antibody. […] The synovium of joints comprises macrophage-like type A cells, which are responsible for phagocytosing synovial fluid, and fibroblast-like type B cells, which produce hyaluronic acid and mucin to nourish and mechanically protect, respectively, the underlying articular cartilage (Donahue H J, et al. Nature reviews Rheumatology. 2017; 14(1):42-51). […]

The subject of data set [2] is post-traumatic OA model (DMM) in male C57BL/6 mice. Description: DMM OA model: open field test. It counts as in vivo, mouse. As to the method:
(§1) Destabilization of the medial meniscus (DMM) surgery was performed on the right knee joint of mice (Glasson S S, et al. Osteoarthritis and cartilage. 2007; 15(9):1061-9). Briefly, a 3 mm longitudinal incision over the distal patella to proximal tibial plateau was made. The joint capsule immediately medial to the patellar tendon was incised with a #15 blade and the joint capsule opened with micro-iris scissors. Blunt dissection of the fat pad over the intercondylar area was then performed to expose the intercondylar region, providing visualization of the meniscotibial ligament of the medial meniscus. Mild hemorrhage from the fat pad upon blunt dissection was controlled by pressure from absorption spears. Sectioning of medial meniscotibial ligament with micro-surgical knife, with the blade directed proximo-laterally, gave destabilization of the medial meniscus (DMM). Sham surgery was performed with the ligament visualized but not transected.
Spontaneous locomotor activity was analyzed using the open-field test. Mice were placed into the center of a chamber 25×25×25 cm to allow free exploration. The experiments were performed for 10 minutes. Total travel distance, and immobility time were measured by computerized analysis. Mice behavior was recorded, and videos were analyzed by use of ANY-maze behavior tracking software (Stoelting Co., Wood Dale, IL, USA).

Data set [3] shares this test system. Description: DMM OA model: synovitis score. Format: in vivo, mouse. Conditions: vs saline. As to the method: as §1
The degree of synovitis is determined considering synovial membrane thickening and synovial hyperplasia and scored on a scale of 0-3 (0, no synovitis; 1, mild synovitis; 2, moderate synovitis; and 3, severe synovitis) (Krenn V, et al. Pathology, research and practice. 2002; 198(5):317-25; and Huesa C, et al. Annals of the rheumatic diseases. 2016; 75(11):1989-97. Blinded histomorphometric assessment was performed.

The test system is the same in data set [4]. The data set is described as follows: DMM OA model: micro-computed tomography of tibia subchondral bone. It counts as in vivo, mouse. The following applies: eight weeks post-surgery, vs saline-treated DMM mice. As to the method:
as §1
Micro-computed tomography. Following behavioral tests, mice were sacrificed and hindlimbs were dissected immediately and fixed in 4% paraformaldehyde. The structural properties of subchondral bone were evaluated using a 3D reconstruction of μCT imaging system (Brüker SkyScan 1173; Brüker microCT, Kontich, Belgium). Samples were scanned in saline with the following settings: 60 kV, […] beam intensity, 0.5 mm aluminum filter, 0.7° rotation step, 4-frame averaging, 1090 ms integration time, 1024×1024 pixel matrix, and a 10 μm isotropic voxel dimension. After scanning, noise was removed from the images by eliminating disconnected objects smaller than 4 pixels in size. Morphometric analysis was performed on 50 slices extending proximally, beginning with the first slice in which the tibia condyles had fully merged. The subchondral bone was segmented from the cortical shell manually on key slices using a contouring tool, and the contours were morphed automatically to segment the trabecular bone on all slices. The morphometry was reconstructed and analyzed. A grayscale value of 95 in a set of 8-bit slices was set as the threshold and was applied to the specimens after comparing grayscale and binarized images in both groups. After thresholding, the BV/TV (%), Tb.Th (mm), Tb.Sp (mm), and Tb.N (mm^−1) were quantified.

Where [5] appears, read: 4 weeks after DMM, vs saline group.
The mark [6] stands for this setting: single i.p. injection, eight weeks after DMM, vs saline.

From patent US20240076371A1, “COMPOSITIONS AND METHODS FOR TREATING OSTEOARTHRITIS, RHEUMATOID ARTHRITIS, AND JOINT AND TENDON DISORDERS” (BOARD OF REGENTS, THE UNIVERSITY OF TEXAS SYSTEM, priority 2021, published 2024) come the findings set out here.

B1: M1 antibody: antibody with variable heavy chain SEQ ID NO: 58 and variable light chain SEQ ID NO: 60; inhibits or blocks opening of Cx43 hemichannel (antibody, V domains shown)
VH: EVQLQQPGAELVKPGASVKLSCKASGYTFTSYYMYWVKQRPGQGLEWIGGINPSNGGTNFNEKFKNKATLTVDKSSSTAYMQLSSLTSEDSAVYYCTREGNPYYTMNYWGQGTSVTVSS
VL: DIVMTQSPSSLSVSAGEKVTMSCKSSQSLLNSGNQKTYLAWYQQKPGQPPKLLIYGASTRESGVPDRFTGSGSGTDFTLTISSVQAEDLAVYYCQNDHSYPFTFGSGTKLEIK
Take B1: in data set [1] (25 mg/kg i.p. at 30 mins after DMM surgery, anti-human IgG secondary antibody), the “antibody binding site in the knee joint region” value is “primarily localized in the synovium region”. Moreover, the “antibody signal after administration” value in data set [1] (25 mg/kg i.p. at 30 mins after DMM surgery, one or two weeks after injection) is “detectable at both one and two weeks”. Further, in data set [1] (synovium region), the “time after administration at which antibody signals were detected” value is listed as “more than 2 weeks”. Also, in data set [2] (setting [5]), the “distance moved (open field)” value is given as “trend of increased distance moved” and the “immobility time (open field)” value was “decreased immobility time”. Besides, the “pain responses: reductions in distance traveled and elevations in immobility time (open field)” value in data set [2] (8 weeks after DMM, i.p. twice) is recorded as “suppressed these pain responses”. The “distance traveled and immobility time in sham mice, saline vs antibody” value in data set [2] (sham mice at 8 weeks) is recorded as “No difference”. In addition, in data set [2] (setting [6]), the “distance traveled (open field)” value is on record as “significant increase” and the “immobility time (open field)” value was “reduction”. For the same molecule, the “degree of synovitis (synovitis score)” value in data set [3] (DMM mice, i.p. twice at 30 minutes and four weeks post-surgery, 8 weeks after DMM) was “marked reduction”. For the same molecule, in data set [3] (delayed treatment: i.p. at 10, 25 and 40 days after DMM surgery, eight weeks after DMM), the “degree of synovitis (synovitis score)” value was “significant reduction”. In data set [4], the “bone mineral density (BMD) at the tibia subchondral bone” value is recorded as “significantly decreased”, the “bone volume fraction (BV/TV) at the tibia subchondral bone” value is “significantly decreased”, the “trabecular separation (Tb.Sp) at the tibia subchondral bone” value is reported as “elevated” and the “trabecular thickness (Tb.Th) at the tibia subchondral bone” value is given as “significantly decreased”.
